Data reported in patent US7648963B2, “Molecules of the PYRIN/NBS/LRR protein family and uses thereof” (Millennium Pharmaceuticals, Inc., priority 2001, dated 2010).
Residues, ends and D or L forms follow the SMILES beside them. *: point of attachment. Cbz = O=C(OCc1ccccc1)*; CH2F = FC*

Legend:
caspase-1 = experiment: IL-1β secretion assay in COS-7L cells (ELISA for mouse IL-1β); assay type: cell-based; settings: for IL-1β production (caspase-1 activation): co-expression with caspase-1 and CARD-5 at low protein levels, FIG. 14B
Protocol: Experiments were next carried out using an IL-1β secretion assay to determine whether CARD-5 and PYRIN-8 induce activation of caspase-1. Active caspase-1 cleaves pro-IL-1β, resulting in the secretion of bioactive IL-1β from cells. In the IL-1β secretion assays, COS-7L cells (GIBCO) were co-transfected in 12-well (22-mm) plates using LipofectAMINE […] reagent (Invitrogen) with plasmids encoding mouse pro-IL-1β and indicated expression plasmids (total DNA=1.04 μg). Supernatants were collected 24 hours after transfection and subjected to ELISA for mouse IL-1β according to the manufacturer's protocol (R&D Systems).
The caspase-1 inhibitor Z-WEHD-FMK was added to cells following transfection at a final concentration of 100 μM.

CARD-5 = molecular target: T1, CARD-5 (Homo sapiens, UniProt Q9ULZ3); experiment: Cellular co-localization (immunostaining) in 293T embryonic kidney cells; assay type: cell-based; settings: 293T cells; FLAG-tagged PYRIN-8 construct co-expressed with HA-tagged CARD-5
T1 construct: expressed in transfected cells; host or cells: 293T
Protocol: Cellular co-localization studies were carried out to determine whether PYRIN-8 interacts with CARD-5 (also known as ASC) when the two proteins were overexpressed in 293T embryonic kidney cells. Plasmids expressing either full-length PYRIN-8 (PYRIN-8FL, residues 1-1061 of SEQ ID NO:18) or a PYRIN-8 truncation mutant lacking the PYRIN domain (PYRIN-8ΔPYRIN, residues 89-1061 of SEQ ID NO:18) with a C-terminal FLAG epitope were constructed using pCI (Promega). FLAG-tagged PYRIN-8 and HA-tagged CARD-5 were expressed in cells and detected using a mixture of anti-HA and anti-FLAG antibodies.
In immunostaining assays to detect cellular localization, 293T cells were transfected in poly-D-lysine-coated glass chamber slides (BioCoat, Becton-Dickinson Labware) with plasmids expressing HA-tagged CARD-5 and either FLAG-tagged PYRIN-8 or PYRIN-8ΔPYRIN using SuperFect transfection reagent (Qiagen). Cells were fixed 24 hours after transfection in 4% paraformaldehyde, permeabilized and blocked in a buffer containing 0.3% Triton X-100, and incubated with the following primary and secondary antibodies: rabbit anti-HA polyclonal Y-11 (Santa Cruz Biotechnology), mouse anti-FLAG monoclonal antibody M2 (Sigma), Alexa-350 goat anti-rabbit IgG (Molecular Probes), and Alexa-598 goat anti-mouse IgG (Molecular Probes). […]

T1 sequence (Q9ULZ3 whole entry): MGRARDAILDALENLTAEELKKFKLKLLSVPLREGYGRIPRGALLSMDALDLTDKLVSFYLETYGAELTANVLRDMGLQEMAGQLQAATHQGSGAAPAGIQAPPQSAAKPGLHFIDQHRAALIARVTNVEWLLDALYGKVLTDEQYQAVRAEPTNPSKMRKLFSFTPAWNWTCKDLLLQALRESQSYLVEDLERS

With COC(=O)CC[C@H](NC(=O)[C@H](Cc1c[nH]c2ccccc12)NC(=O)OCc1ccccc1)C(=O)N[C@@H](Cc1cnc[nH]1)C(=O)N[C@@H](CC(=O)OC)C(=O)CF [Z-WEHD, Z-WEHD-FMK, reference compound] (Cbz-WE(OMe)HD(OMe)-CH2F) the “effect on IL-1β secretion induced by PYRIN-8 and CARD-5” value (caspase-1; inhibitor added following transfection at a final concentration of 100 μM, FIG. 14C) was “blocked the ability of PYRIN-8 and CARD-5 to induce the secretion of IL-1β”.

B1: PYRIN-8ΔPYRIN: PYRIN-8 truncation mutant lacking the PYRIN domain, residues 89-1061 of SEQ ID NO:18 (protein, listed as Homo sapiens)
chain: GQREDLVRDTPPGGPSSLGNQSTCLLEVSLVTPRKDPQETYRDYVRRKFRLMEDRNARLGECVNLSHRYTRLLLVKEHSNPMQVQQQLLDTGRGHARTVGHQASPIKIETLFEPDEERPEPPRTVVMQGAAGIGKSMLAHKVMLDWADGKLFQGRFDYLFYINCREMNQSATECSMQDLIFSCWPEPSAPLQELIRVPERLLFIIDGFDELKPSFHDPQGPWCLCWEEKRPTELLLNSLIRKKLLPELSLLITTRPTALEKLHRLLEHPRHVEILGFSEAERKEYFYKYFHNAEQAGQVFNYVRDNEPLFTMCFVPLVCWVVCTCLQQQLEGGGLLRQTSRTTTAVYMLYLLSLMQPKPGAPRLQPPPNQRGLCSLAADGLWNQKILFEEQDLRKHGLDGEDVSAFLNMNIFQKDINCERYYSFIHLSFQEFFAAMYYILDEGEGGAGPDQDVTRLLTEYAFSERSFLALTSRFLFGLLNEETRSHLEKSLCWKVSPHIKMDLLQWIQSKAQSDGSTLQQGSLEFFSCLYEIQEEEFIQQALSHFQVIVVSNIASKMEHMVSSFCLKRCRSAQVLHLYGATYSADGEDRARCSAGAHTLLVQLPERTVLLDAYSEHLAAALCTNPNLIELSLYRNALGSRGVKLLCQGLRHPNCKLQNLRLKRCRISSSACEDLSAALIANKNLTRMDLSGNGVGFPGMMLLCEGLRHPQCRLQMIQLRKCQLESGACQEMASVLGTNPHLVELDLTGNALEDLGLRLLCQGLRHPVCRLRTLWLKICRLTAAACDELASTLSVNQSLRELDLSLNELGDLGVLLLCEGLRHPTCKLQTLRLGICRLGSAACEGLSVVLQANHNLRELDLSFNDLGDWGLWLLAEGLQHPACRLQKLWLDSCGLTAKACENLYFTLGINQTLTDLYLTNNALGDTGVRLLCKRLSHPGCKLRVLWLFGMDLNKMTHSRLAALRVTKPYLDIGC
In the case of B1, the “IL-1β production (caspase-1 activation)” value (caspase-1) is reported as “eliminated the synergistic production of IL-1β” and the “co-localization with CARD-5 punctate structures” value (CARD-5) is reported as “failed to associate with the CARD-5 punctate structures”.

B2: PYRIN-8: full-length human PYRIN-8 protein, residues 1-1061 of SEQ ID NO:18, expressed from plasmid (protein, listed as Homo sapiens)
chain: MLRTAGRDGLCRLSTYLEELEAVELKKFKLYLGTATELGEGKIPWGSMEKAGPLEMAQLLITHFGPEEAWRLALSTFERINRKDLWERGQREDLVRDTPPGGPSSLGNQSTCLLEVSLVTPRKDPQETYRDYVRRKFRLMEDRNARLGECVNLSHRYTRLLLVKEHSNPMQVQQQLLDTGRGHARTVGHQASPIKIETLFEPDEERPEPPRTVVMQGAAGIGKSMLAHKVMLDWADGKLFQGRFDYLFYINCREMNQSATECSMQDLIFSCWPEPSAPLQELIRVPERLLFIIDGFDELKPSFHDPQGPWCLCWEEKRPTELLLNSLIRKKLLPELSLLITTRPTALEKLHRLLEHPRHVEILGFSEAERKEYFYKYFHNAEQAGQVFNYVRDNEPLFTMCFVPLVCWVVCTCLQQQLEGGGLLRQTSRTTTAVYMLYLLSLMQPKPGAPRLQPPPNQRGLCSLAADGLWNQKILFEEQDLRKHGLDGEDVSAFLNMNIFQKDINCERYYSFIHLSFQEFFAAMYYILDEGEGGAGPDQDVTRLLTEYAFSERSFLALTSRFLFGLLNEETRSHLEKSLCWKVSPHIKMDLLQWIQSKAQSDGSTLQQGSLEFFSCLYEIQEEEFIQQALSHFQVIVVSNIASKMEHMVSSFCLKRCRSAQVLHLYGATYSADGEDRARCSAGAHTLLVQLPERTVLLDAYSEHLAAALCTNPNLIELSLYRNALGSRGVKLLCQGLRHPNCKLQNLRLKRCRISSSACEDLSAALIANKNLTRMDLSGNGVGFPGMMLLCEGLRHPQCRLQMIQLRKCQLESGACQEMASVLGTNPHLVELDLTGNALEDLGLRLLCQGLRHPVCRLRTLWLKICRLTAAACDELASTLSVNQSLRELDLSLNELGDLGVLLLCEGLRHPTCKLQTLRLGICRLGSAACEGLSVVLQANHNLRELDLSFNDLGDWGLWLLAEGLQHPACRLQKLWLDSCGLTAKACENLYFTLGINQTLTDLYLTNNALGDTGVRLLCKRLSHPGCKLRVLWLFGMDLNKMTHSRLAALRVTKPYLDIGC
B2 was tested, and the “IL-1β production (caspase-1 activation)” value (caspase-1) was “increase in IL-1β production” and the “co-localization with CARD-5 punctate structures” value (CARD-5) was “co-localize with CARD-5”.
